Experimental data as given in the supplement of paper PMC7877785.
± gives the uncertainty stated by the source.

Assay: self-splicing fitness, log relative to wild type (ln ratio); higher = more splicing; Tetrahymena group I intron in knt gene, E. coli kanamycin selection, DiMSum; sequences stand for … in CUCUCU…GGAGGGAAAAGUUAUCAGGCAUGCACCUGGUAGCUAGUCUUUAAACCAAUAGAUUGCAUCGGUUUAAAAGGCAAGACCGUCAAAUUGCGGGAAAGGGGUCAACAGCCGUUCAGUACCAAGUCUCAGGGGAAACUUUGAGAUGGCCUUGCAAAGGGUAUGGUAAUAAGCUGACGGACAUGGUCCUAACCACGCAGCCAAGUCCUAAGUCAACAGAUCUUCUGUUGAUAUGGAUGCAGUUCACAGACUAAAUGUCGGUCGGGGAAGAUGUAUUCUUCUCAUAAGAUAUAGUCGGACCUCUCCUUAAUGGGAGCUAGCGGAUGAAGUGAUGCAACACUGGAGCCGCUGGGAACUAAUUUGUAUGCGAAAGUAUAUUGAUUAGUUUUGGAGUACUCGUGGUCG
Summary of the method: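 The eight P1ex-region nucleotides of an intron in the knt kanamycin-resistance gene on pET-22b(+) were all randomised and the library put into E. coli BL21(DE3). Six replicate transformations were grown overnight at 37°C or 30°C on LB agar with or without 25 μg/mL kanamycin, together with 100 μg/mL carbenicillin, 50 μM IPTG and 0.2% rhamnose. Colonies were pooled and amplicon-sequenced on an Illumina HiSeq 2500. Fitness from DiMSum is the error-weighted combination of wild-type-normalised replicate fold changes, kanamycin over none.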

Sequence: CCGAAGCAAUAUUACGUUUA
- self-splicing fitness (ln) (30 °C): -3.96 ± 0.26
- self-splicing fitness (ln) (37 °C): -2.95 ± 0.19

Sequence: GACCAGCAAUAUUACGUGUA
- self-splicing fitness (ln) (30 °C): -0.635 ± 0.06
- self-splicing fitness (ln) (37 °C): 0.255 ± 0.074

Sequence: UUUCAGCAAUAUUACGGUUU
- self-splicing fitness (ln) (30 °C): -0.595 ± 0.073
- self-splicing fitness (ln) (37 °C): -0.244 ± 0.092

Sequence: UCCAAGCAAUAUUACGACGG
- self-splicing fitness (ln) (30 °C): -0.354 ± 0.076
- self-splicing fitness (ln) (37 °C): 0.164 ± 0.1

Sequence: GGCCAGCAAUAUUACGUAUU
- self-splicing fitness (ln) (30 °C): -2.14 ± 0.11
- self-splicing fitness (ln) (37 °C): -0.199 ± 0.087

Sequence: CAUUAGCAAUAUUACGCGAA
- self-splicing fitness (ln) (30 °C): -2.65 ± 0.19
- self-splicing fitness (ln) (37 °C): -1.17 ± 0.19

Sequence: CCUGAGCAAUAUUACGGCCA
- self-splicing fitness (ln) (30 °C): -2.01 ± 0.34
- self-splicing fitness (ln) (37 °C): -2.05 ± 0.29

Sequence: GCCUAGCAAUAUUACGCUUA
- self-splicing fitness (ln) (30 °C): -1.01 ± 0.1
- self-splicing fitness (ln) (37 °C): -0.807 ± 0.11

Sequence: AGUGAGCAAUAUUACGUACU
- self-splicing fitness (ln) (30 °C): -1.71 ± 0.13
- self-splicing fitness (ln) (37 °C): -1.15 ± 0.17

Sequence: CUGGAGCAAUAUUACGUAAG
- self-splicing fitness (ln) (30 °C): -1.06 ± 0.083
- self-splicing fitness (ln) (37 °C): -0.0976 ± 0.1

Sequence: UGUCAGCAAUAUUACGAAAU
- self-splicing fitness (ln) (30 °C): -2.21 ± 0.19
- self-splicing fitness (ln) (37 °C): -1.18 ± 0.19

Sequence: UAAAAGCAAUAUUACGUACU
- self-splicing fitness (ln) (30 °C): -0.876 ± 0.073
- self-splicing fitness (ln) (37 °C): -0.401 ± 0.092

Sequence: CCUGAGCAAUAUUACGGCAA
- self-splicing fitness (ln) (30 °C): -2.14 ± 0.22
- self-splicing fitness (ln) (37 °C): -2.42 ± 0.21

Sequence: CCGCAGCAAUAUUACGCUUG
- self-splicing fitness (ln) (30 °C): -3 ± 0.12
- self-splicing fitness (ln) (37 °C): -2.84 ± 0.16

Sequence: GGGGAGCAAUAUUACGCUGC
- self-splicing fitness (ln) (30 °C): -2.22 ± 0.45

Sequence: GCGGAGCAAUAUUACGGUUU
- self-splicing fitness (ln) (37 °C): -2.53 ± 0.39

Sequence: UUAGAGCAAUAUUACGCGAG
- self-splicing fitness (ln) (30 °C): -0.443 ± 0.084
- self-splicing fitness (ln) (37 °C): -0.0681 ± 0.094

Sequence: GUUGAGCAAUAUUACGCAGC
- self-splicing fitness (ln) (30 °C): -2.23 ± 0.35

Sequence: AACCAGCAAUAUUACGGUUG
- self-splicing fitness (ln) (30 °C): -2.21 ± 0.05
- self-splicing fitness (ln) (37 °C): -0.839 ± 0.06

Sequence: CGAAAGCAAUAUUACGAGGG
- self-splicing fitness (ln) (30 °C): -3.66 ± 0.14
- self-splicing fitness (ln) (37 °C): -2.17 ± 0.13

Sequence: CGACAGCAAUAUUACGUUAG
- self-splicing fitness (ln) (30 °C): -2.51 ± 0.097
- self-splicing fitness (ln) (37 °C): -0.772 ± 0.095

Sequence: CAUAAGCAAUAUUACGAUAU
- self-splicing fitness (ln) (30 °C): -3.41 ± 0.28
- self-splicing fitness (ln) (37 °C): -2.86 ± 0.32

Sequence: AGCCAGCAAUAUUACGUGGU
- self-splicing fitness (ln) (30 °C): -3.52 ± 0.14
- self-splicing fitness (ln) (37 °C): -3.58 ± 0.2

Sequence: UGACAGCAAUAUUACGCACA
- self-splicing fitness (ln) (30 °C): 0.341 ± 0.092
- self-splicing fitness (ln) (37 °C): 0.528 ± 0.12

Sequence: CCCAAGCAAUAUUACGAUUC
- self-splicing fitness (ln) (30 °C): -3.69 ± 0.25
- self-splicing fitness (ln) (37 °C): -2.1 ± 0.26

Sequence: AAAAAGCAAUAUUACGGACA
- self-splicing fitness (ln) (30 °C): -0.0577 ± 0.11
- self-splicing fitness (ln) (37 °C): -0.0474 ± 0.12

Sequence: AGAAAGCAAUAUUACGUUUU
- self-splicing fitness (ln) (30 °C): -3.84 ± 0.17
- self-splicing fitness (ln) (37 °C): -3.06 ± 0.2

Sequence: CCUGAGCAAUAUUACGACUU
- self-splicing fitness (ln) (30 °C): -3.87 ± 0.27
- self-splicing fitness (ln) (37 °C): -2.46 ± 0.24

Sequence: GUUAAGCAAUAUUACGACGU
- self-splicing fitness (ln) (30 °C): -0.121 ± 0.059
- self-splicing fitness (ln) (37 °C): 0.426 ± 0.069

Sequence: GCGCAGCAAUAUUACGAGAC
- self-splicing fitness (ln) (30 °C): -3.09 ± 0.23
- self-splicing fitness (ln) (37 °C): -1.18 ± 0.18

Sequence: GCCUAGCAAUAUUACGUUGG
- self-splicing fitness (ln) (30 °C): -3.78 ± 0.32
- self-splicing fitness (ln) (37 °C): -2.7 ± 0.25

Sequence: ACGGAGCAAUAUUACGGCAG
- self-splicing fitness (ln) (37 °C): -1.07 ± 0.44

Sequence: AAGUAGCAAUAUUACGCUUC
- self-splicing fitness (ln) (37 °C): -1.41 ± 0.2

Sequence: CUCUAGCAAUAUUACGAGGG
- self-splicing fitness (ln) (30 °C): -3.28 ± 0.22
- self-splicing fitness (ln) (37 °C): -1.45 ± 0.18

Sequence: CCCUAGCAAUAUUACGGGUG
- self-splicing fitness (ln) (30 °C): -2.51 ± 0.11
- self-splicing fitness (ln) (37 °C): -0.894 ± 0.089

Sequence: CCCGAGCAAUAUUACGGAUC
- self-splicing fitness (ln) (30 °C): -3.92 ± 0.46
- self-splicing fitness (ln) (37 °C): -2.06 ± 0.27

Sequence: GGGCAGCAAUAUUACGGUCG
- self-splicing fitness (ln) (30 °C): -0.993 ± 0.076
- self-splicing fitness (ln) (37 °C): -0.0756 ± 0.12

Sequence: AUCCAGCAAUAUUACGAAAC
- self-splicing fitness (ln) (30 °C): -2.56 ± 0.11
- self-splicing fitness (ln) (37 °C): -1.47 ± 0.16

Sequence: GUAUAGCAAUAUUACGAGCU
- self-splicing fitness (ln) (30 °C): -2.42 ± 0.27
- self-splicing fitness (ln) (37 °C): -1.61 ± 0.3

Sequence: AUAAAGCAAUAUUACGCGAG
- self-splicing fitness (ln) (30 °C): -1.08 ± 0.075
- self-splicing fitness (ln) (37 °C): 0.0257 ± 0.095

Sequence: UGGGAGCAAUAUUACGCUAA
- self-splicing fitness (ln) (30 °C): -2.74 ± 0.29
- self-splicing fitness (ln) (37 °C): -1.93 ± 0.31

Sequence: GUCUAGCAAUAUUACGGCAA
- self-splicing fitness (ln) (30 °C): -1.61 ± 0.25
- self-splicing fitness (ln) (37 °C): 0.441 ± 0.17

Sequence: UCGAAGCAAUAUUACGGGGG
- self-splicing fitness (ln) (30 °C): -1.86 ± 0.18
- self-splicing fitness (ln) (37 °C): -1.39 ± 0.2

Sequence: CCACAGCAAUAUUACGUGAU
- self-splicing fitness (ln) (30 °C): -3.51 ± 0.18
- self-splicing fitness (ln) (37 °C): -1.98 ± 0.12

Sequence: AGCGAGCAAUAUUACGGUGA
- self-splicing fitness (ln) (30 °C): -3.59 ± 0.21
- self-splicing fitness (ln) (37 °C): -2.77 ± 0.15

Sequence: AUCAAGCAAUAUUACGAGCG
- self-splicing fitness (ln) (30 °C): -1.92 ± 0.12
- self-splicing fitness (ln) (37 °C): -1.21 ± 0.14

Sequence: GGGCAGCAAUAUUACGGCGG
- self-splicing fitness (ln) (30 °C): -1.76 ± 0.12
- self-splicing fitness (ln) (37 °C): -1.99 ± 0.17

Sequence: CUUUAGCAAUAUUACGACUA
- self-splicing fitness (ln) (37 °C): -1.32 ± 0.42

Sequence: UCCCAGCAAUAUUACGAGCG
- self-splicing fitness (ln) (30 °C): -3.32 ± 0.33
- self-splicing fitness (ln) (37 °C): -2.02 ± 0.26

Sequence: ACGCAGCAAUAUUACGAGAA
- self-splicing fitness (ln) (30 °C): -1.64 ± 0.26
- self-splicing fitness (ln) (37 °C): -2.83 ± 0.25

Sequence: AUCUAGCAAUAUUACGAGAU
- self-splicing fitness (ln) (30 °C): -2.88 ± 0.26
- self-splicing fitness (ln) (37 °C): -2.31 ± 0.34

Sequence: UAUGAGCAAUAUUACGUGGA
- self-splicing fitness (ln) (30 °C): -3.52 ± 0.35
- self-splicing fitness (ln) (37 °C): -3.47 ± 0.43

Sequence: CGGCAGCAAUAUUACGUUCA
- self-splicing fitness (ln) (30 °C): -0.358 ± 0.068
- self-splicing fitness (ln) (37 °C): 0.0795 ± 0.082

Sequence: UUCCAGCAAUAUUACGGACC
- self-splicing fitness (ln) (30 °C): -1.77 ± 0.14
- self-splicing fitness (ln) (37 °C): -0.818 ± 0.16

Sequence: UUAAAGCAAUAUUACGAAAU
- self-splicing fitness (ln) (30 °C): -3.49 ± 0.3
- self-splicing fitness (ln) (37 °C): -2.12 ± 0.24

Sequence: GUUAAGCAAUAUUACGCAGG
- self-splicing fitness (ln) (30 °C): -3.11 ± 0.38
- self-splicing fitness (ln) (37 °C): -2.47 ± 0.31

Sequence: AAUUAGCAAUAUUACGGAGG
- self-splicing fitness (ln) (30 °C): -3.68 ± 0.39
- self-splicing fitness (ln) (37 °C): -1.87 ± 0.25

Sequence: CUAGAGCAAUAUUACGAAUU
- self-splicing fitness (ln) (30 °C): -3.78 ± 0.28
- self-splicing fitness (ln) (37 °C): -1.95 ± 0.29

Sequence: GCUCAGCAAUAUUACGUGGG
- self-splicing fitness (ln) (30 °C): -3.65 ± 0.19
- self-splicing fitness (ln) (37 °C): -1.85 ± 0.16

Sequence: ACCAAGCAAUAUUACGAGUU
- self-splicing fitness (ln) (30 °C): -4.23 ± 0.23
- self-splicing fitness (ln) (37 °C): -1.99 ± 0.17

Sequence: GGGCAGCAAUAUUACGCCUC
- self-splicing fitness (ln) (37 °C): -1.42 ± 0.31

Sequence: AGUGAGCAAUAUUACGCAUU
- self-splicing fitness (ln) (30 °C): -2.55 ± 0.21
- self-splicing fitness (ln) (37 °C): -1.4 ± 0.19
